Biological target: lysozyme (UniProt P00698)
Experiment: ELISA; phage ELISA: lysozyme immobilised in a 96-well NUNC Maxisorp plate; 1ZVH displayed on phage
Details: one partner purified

Chain of lysozyme (P00698 19-147): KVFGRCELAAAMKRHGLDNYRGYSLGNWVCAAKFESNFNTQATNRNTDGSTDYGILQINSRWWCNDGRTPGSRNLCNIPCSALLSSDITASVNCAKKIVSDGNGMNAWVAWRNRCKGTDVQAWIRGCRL

B1: camel nanobody 1ZVH, displayed on phage (VHH)
VHH: DVQLVESGGGSVQAGGSLRLSCAASGYIASINYLGWFRQAPGKEREGVAAVSPAGGTPYYADSVKGRFTVSLDNAENTVYLQMNSLKPEDTALYYCAAARQGWYIPLNSYGYNYWGQGTQVTVSS
notes: also called template of the ASyNAL library
  binding result: binds

Reference: article PMC9479348 (Journal of Nanobiotechnology, 2022)
